The source of these data is PMC11681868 (2024).

Where no end group is shown, it is not given here. [ ]: non-standard residue; d: D form. pS = N[C@@H](COP(=O)(O)O)C(=O)O

One experiment concerns the target G11. Briefly: ITC. For orientation: ITC needs no label: the signal is the heat of the interaction.
In another experiment the target is A3. Briefly: ITC.

B1: phosphorylated Akt peptide (peptide)
peptide: RPHFPQF[pS]YSAS
As usually defined, the Kd is the equilibrium constant for the complex coming apart. On to B1, for which the Kd is 18.1 nM with G11 and 31.8 nM in the experiment with A3.
